Sequences and labels used below:
B1: LIM and senescent cell antigen-like-containing domain protein 2, residues 13 to 71; numbered along this chain, Q7Z4I7 (parent)
chain: AVCQRCQARFSPAERIVNSNGELYHEHCFVCAQCFRPFPEGLFYEFEGRKYCEHDFQML

± gives the uncertainty stated by the source.

The source of these data is the Human Domainome abundance scans (Beltran et al. 2025).

In the data set the parent is B1. Put plainly: abundance fitness (aPCA) (normalised: wild type 0, dead -1); higher = more abundant; growth selection in yeast, the domain comes from the species named. To be noted: Homo sapiens.
Regarding AVCQRCQARKSPAERIVNSNGELYHEHCFVCAQCFRPFPEGLFYEFEGRKYCEHDFQML [F10K], the abundance fitness is -0.548 ± 0.1.
For AVCQRCQARFSPAERIVNSNGELYHEHCGVCAQCFRPFPEGLFYEFEGRKYCEHDFQML [F29G] the value was -0.019 ± 0.1.
To AVCQRCQARFSPAERIVNSNGELYHEHCFVCAQCFRPFPEGLFYEFEKRKYCEHDFQML [G48K] belongs -0.067 ± 0.062; to AVCQRCQDRFSPAERIVNSNGELYHEHCFVCAQCFRPFPEGLFYEFEGRKYCEHDFQML [A8D], -0.119 ± 0.11.
On to AVCQRCQARFSPAERIVNSNGELYHEHCFVCAQCFRPFPEGLFYEFSGRKYCEHDFQML [E47S], for which the abundance fitness is -0.364 ± 0.07.
Regarding AVCQRCQARFSPAERIVNSNGELYHEHCFVCAPCFRPFPEGLFYEFEGRKYCEHDFQML [Q33P], the abundance fitness is -0.58 ± 0.15.
For the variant AVCQRCQARFSPAERIVNSNGELYHEHCFVCAFCFRPFPEGLFYEFEGRKYCEHDFQML [Q33F], the abundance fitness was 0.285 ± 0.12.
Consider AVCQRCQARFSPAERIVNSNGELYHEHCFVCAYCFRPFPEGLFYEFEGRKYCEHDFQML [Q33Y], for which the abundance fitness was -0.107 ± 0.14.
For the variant AVCQRCQARFSPAERIPNSNGELYHEHCFVCAQCFRPFPEGLFYEFEGRKYCEHDFQML [V17P], the abundance fitness is -0.727 ± 0.11.
AVCQRCQARFSPAERIVNSNGELYHEHCFVCGQCFRPFPEGLFYEFEGRKYCEHDFQML [A32G]: the abundance fitness was -0.073 ± 0.053.
For AVCQRCQARFSPAERIVNSNGELYHEHCFVCAQCFRPFPEGLFYEFEGAKYCEHDFQML [R49A] the value was -0.057 ± 0.099; for AVCQRCQARFSPAERIVNSNGELYHEHCFVCAQCFRPFPEGLFYEFEGKKYCEHDFQML [R49K], 0.029 ± 0.11.
For AVCQRCQARFSPAERIVNSNGELYHEHCFVCAQCFRPFPEGLFYEFEGYKYCEHDFQML [R49Y], the abundance fitness is -0.328 ± 0.18.
For AVCIRCQARFSPAERIVNSNGELYHEHCFVCAQCFRPFPEGLFYEFEGRKYCEHDFQML [Q4I] the value was -0.216 ± 0.18.
For EVCQRCQARFSPAERIVNSNGELYHEHCFVCAQCFRPFPEGLFYEFEGRKYCEHDFQML [A1E], the abundance fitness was found to be 0.161 ± 0.11.
For SVCQRCQARFSPAERIVNSNGELYHEHCFVCAQCFRPFPEGLFYEFEGRKYCEHDFQML [A1S] the value was 0.002 ± 0.12; for VVCQRCQARFSPAERIVNSNGELYHEHCFVCAQCFRPFPEGLFYEFEGRKYCEHDFQML [A1V], -0.058 ± 0.069; for AVCQRCQARFSPAERIVNSNGELYHEHCFVFAQCFRPFPEGLFYEFEGRKYCEHDFQML [C31F], -0.954 ± 0.1.
Turning to AVCQRCQARFSPAERIVNSNGELYHEHCFVCAQCFRPFPEGFFYEFEGRKYCEHDFQML [L42F], the abundance fitness is -0.301 ± 0.13.
Turning to ALCQRCQARFSPAERIVNSNGELYHEHCFVCAQCFRPFPEGLFYEFEGRKYCEHDFQML [V2L], the abundance fitness is -0.144 ± 0.062.
For AVCQRCQARFSPAERIVNSNGELYHEHCFVCAQCFRPFPEGLFYEFEGRKYCEHDKQML [F56K], the abundance fitness is -0.757 ± 0.34.
Regarding AVCQRCQARFSPAERIVNSNGELYHEHCFVCAQCFRPFPEGLFYEFEGRKYCEHDEQML [F56E], the abundance fitness was -0.648 ± 0.42.
Take AVCQRCQARFSPAERIVNSLGELYHEHCFVCAQCFRPFPEGLFYEFEGRKYCEHDFQML [N20L]: the abundance fitness is -0.136 ± 0.062.
Regarding AVCQRCQARFSPAERIVNSIGELYHEHCFVCAQCFRPFPEGLFYEFEGRKYCEHDFQML [N20I], the abundance fitness was -0.482 ± 0.2.
Turning to AVCQRCQARFSPAERIVNSNGQLYHEHCFVCAQCFRPFPEGLFYEFEGRKYCEHDFQML [E22Q], the abundance fitness turned out to be 0.216 ± 0.075.
On to AVCQRCQARFSPAERIVNSNGELYHEHCFVCAQCFKPFPEGLFYEFEGRKYCEHDFQML [R36K], for which the abundance fitness turned out to be 0.094 ± 0.085.
In the case of AVCQRCQARFSPAERIVNSNGELYHEHCFVCAQCFRPFPEGLFYEFEGRKYCPHDFQML [E53P], the abundance fitness is -0.359 ± 0.11.
As for AVCQRCQARFSPAERIVNSNGELYHEHCFVCAQCFRPFPWGLFYEFEGRKYCEHDFQML [E40W], the abundance fitness is -0.31 ± 0.064.
For AVCQRCQARFSPAERIVNSNGELYHEHCFVCAQCFRPFPDGLFYEFEGRKYCEHDFQML [E40D] the value was -0.018 ± 0.1.
As for AVCQRCQARFSPAERIVNSNGELYHEHCFVCAQCFRPFPEGLFYEFEGRKYHEHDFQML [C52H], the abundance fitness is -0.486 ± 0.28.
With AVCQRCQARFSPAERIVNSNGELYHEHIFVCAQCFRPFPEGLFYEFEGRKYCEHDFQML [C28I], the abundance fitness is -0.728 ± 0.2.
Take AVCQRCQARFSPAERIVNSNGELYHEHMFVCAQCFRPFPEGLFYEFEGRKYCEHDFQML [C28M]: the abundance fitness was -0.418 ± 0.15.
For AVCQPCQARFSPAERIVNSNGELYHEHCFVCAQCFRPFPEGLFYEFEGRKYCEHDFQML [R5P], the abundance fitness is -0.625 ± 0.15.
In the case of AVCQSCQARFSPAERIVNSNGELYHEHCFVCAQCFRPFPEGLFYEFEGRKYCEHDFQML [R5S], the abundance fitness turned out to be 0.209 ± 0.062.
In the case of AVCQRCQARFSPAERIVNSNGELYHEHCFVCAQCFRPFPEGLFYEFEGRKHCEHDFQML [Y51H], the abundance fitness is -0.743 ± 0.18.
On to AVCQRCQARFSPAERIVNSNGELYHEHCFVCAQCFRPFPEGLFYEFEGRKTCEHDFQML [Y51T], for which the abundance fitness is -0.702 ± 0.14.
Consider AVCQRCQARFSPAERIVNTNGELYHEHCFVCAQCFRPFPEGLFYEFEGRKYCEHDFQML [S19T], for which the abundance fitness is -0.064 ± 0.076.
For AVCQRCQARFSPAERIVNLNGELYHEHCFVCAQCFRPFPEGLFYEFEGRKYCEHDFQML [S19L] the value was -0.132 ± 0.071; for AVCQRCQARFSPAERIVNSNGELYHEHCFVCAQCFRPFPEGLFYEFEGRKYCEHDFQMR [L59R], -0.123 ± 0.085; for AVCQRCQARFSPAERTVNSNGELYHEHCFVCAQCFRPFPEGLFYEFEGRKYCEHDFQML [I16T], 0.07 ± 0.051.
For AVCQRCQARFSPAERDVNSNGELYHEHCFVCAQCFRPFPEGLFYEFEGRKYCEHDFQML [I16D], the abundance fitness is -0.267 ± 0.091.
Turning to AVCQRCQARFSPAERIVNSNGELKHEHCFVCAQCFRPFPEGLFYEFEGRKYCEHDFQML [Y24K], the abundance fitness was -0.257 ± 0.061.
For AVCQRCQARFSPAERIVNSNGELFHEHCFVCAQCFRPFPEGLFYEFEGRKYCEHDFQML [Y24F] the value was 0.007 ± 0.057; for AVCQRCQARFSPAERIVNSNGEHYHEHCFVCAQCFRPFPEGLFYEFEGRKYCEHDFQML [L23H], 0.238 ± 0.088; for AVCQRCQARFSPAERIVNSNGELYHEHCFVCAQCARPFPEGLFYEFEGRKYCEHDFQML [F35A], 0.077 ± 0.1.
Regarding AVCQRCQARFSPAERIVNSNGELYHEHCFVCAQCVRPFPEGLFYEFEGRKYCEHDFQML [F35V], the abundance fitness came to 0.112 ± 0.055.
As for AVCQRCQARFSPAERIVNSNGELYHEHCFVCAQCTRPFPEGLFYEFEGRKYCEHDFQML [F35T], the abundance fitness was 0.072 ± 0.073.
Regarding AVCQRCQARFSPAERIVNSNGELYHEHCFVCAQCCRPFPEGLFYEFEGRKYCEHDFQML [F35C], the abundance fitness was 0.096 ± 0.073.
Turning to AVCQRCQARFSPAERIVNSNGELYHEHCFVCAQCFRHFPEGLFYEFEGRKYCEHDFQML [P37H], the abundance fitness is -0.445 ± 0.17.
To AVCQRCQARFSPAERIVNSNGELYHEHCFVCAQCFRAFPEGLFYEFEGRKYCEHDFQML [P37A] belongs -0.187 ± 0.088.
To AVCQRCQARFSPAERIVNSNGELYHEHCFVCAQCFRPFPEGLFYEFEGRKYCEHDFYML [Q57Y] belongs -0.586 ± 0.17.
As to AVCQRCQARFSPAERIVNSNGELYHEHCFVCAQCFRPFPEGLFYEFEGRKYCEHDFIML [Q57I], the abundance fitness is -0.295 ± 0.13.
Regarding AVFQRCQARFSPAERIVNSNGELYHEHCFVCAQCFRPFPEGLFYEFEGRKYCEHDFQML [C3F], the abundance fitness was -1.11 ± 0.25.
For AVKQRCQARFSPAERIVNSNGELYHEHCFVCAQCFRPFPEGLFYEFEGRKYCEHDFQML [C3K], the abundance fitness is -1.08 ± 0.23.
As to AVYQRCQARFSPAERIVNSNGELYHEHCFVCAQCFRPFPEGLFYEFEGRKYCEHDFQML [C3Y], the abundance fitness was -0.887 ± 0.18.
For AVCQRCQARFSPAERIVNSNGELYHEHCFVCAQCFRPFPEILFYEFEGRKYCEHDFQML [G41I] the value was -0.733 ± 0.13; for AVCQRCQARFSPAERIVNSNGELYHEHCFVCAQCFRPFPENLFYEFEGRKYCEHDFQML [G41N], 0.021 ± 0.073.
Turning to AVCQRCQARFSGAERIVNSNGELYHEHCFVCAQCFRPFPEGLFYEFEGRKYCEHDFQML [P12G], the abundance fitness was -0.047 ± 0.064.
For AVCQRCQARFSPAYRIVNSNGELYHEHCFVCAQCFRPFPEGLFYEFEGRKYCEHDFQML [E14Y], the abundance fitness is -0.224 ± 0.12.
AVCQRCQARFSPAVRIVNSNGELYHEHCFVCAQCFRPFPEGLFYEFEGRKYCEHDFQML [E14V]: the abundance fitness is -0.184 ± 0.067.
For the variant AVCQRCQARFDPAERIVNSNGELYHEHCFVCAQCFRPFPEGLFYEFEGRKYCEHDFQML [S11D], the abundance fitness amounted to 0.102 ± 0.091.
For AVCQRCQARFCPAERIVNSNGELYHEHCFVCAQCFRPFPEGLFYEFEGRKYCEHDFQML [S11C], the abundance fitness was -0.155 ± 0.13.
For the variant AVCQRCQARFSPAERIVNSNMELYHEHCFVCAQCFRPFPEGLFYEFEGRKYCEHDFQML [G21M], the abundance fitness was -0.328 ± 0.11.
As for AVCQRCQARFSPAERIVNSNGELYHEHCFVCAQCFRPFMEGLFYEFEGRKYCEHDFQML [P39M], the abundance fitness is -0.143 ± 0.075.
